Results taken from US20130323234A1 (Pfizer, published 2013).

How the values were obtained:
[1] = biological target: IGF1R on the human colon carcinoma cell line Colo205 (human, UniProt P08069 31-1367); experiment: cell-based or functional assay
IGF1R = IGF1R (UniProt P08069 31-932, limits assumed); experiment: cell-based or functional assay

- % IGF1R downregulated [1]: 48%
- % IGF1R downregulated (IGF1R): 36%
B1: 2.12.1.fx antibody (antibody, human IgG2, kappa, V domains shown)
VH: QVQLVESGGGLVKPGGSLRLSCAASGFTFSDYYMSWIRQAPGKGLEWVSYISSSGSTRDYADSVKGRFTISRDNAKNSLYLQMNSLRAEDTAVYYCVRDGVETTFYYYYYGMDVWGQGTTVTVSS
VL: DIQMTQSPSSLSASVGDRVTITCRASQDIRRDLGWYQQKPGKAPKRLIYAASRLQSGVPSRFSGSGSGTEFTLTISSLQPEDFATYYCLQHNNYPRTFGQGTKLVIKR
